The record followed here is article PMC10221034 (2023).

The target in the assay is wild-type rTpiA (recombinant Streptococcus pneumoniae D39 triosephosphate isomerase) (Streptococcus pneumoniae D39) (UniProt Q04JH4). The assay is described as follows: SPR; Biacore X100; rTpiA immobilised on CM5 chip by amine coupling; plasminogen 6.25-100 nM injected, contact time 120 s, 20 µL/min; running buffer 100 mM HEPES pH 7.4, 150 mM NaCl, 3 mM EDTA, 0.005% surfactant P20; apparent constants. In general terms: SPR reads the build-up and loss of mass on a sensor chip optically.
Sequence of wild-type rTpiA (recombinant Streptococcus pneumoniae D39 triosephosphate isomerase) (Streptococcus pneumoniae D39) (Q04JH4 2-252): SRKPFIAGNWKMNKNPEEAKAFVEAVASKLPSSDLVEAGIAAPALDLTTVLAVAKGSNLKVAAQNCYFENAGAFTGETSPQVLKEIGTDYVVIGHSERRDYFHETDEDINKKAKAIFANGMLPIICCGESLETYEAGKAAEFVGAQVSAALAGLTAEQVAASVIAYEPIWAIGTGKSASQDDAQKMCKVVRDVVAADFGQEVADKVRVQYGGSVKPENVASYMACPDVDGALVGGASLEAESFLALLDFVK

Take “human plasma plasminogen (natural protein)”: the Kd worked out at 865 nM, the koff was found to be 0.00375 s⁻¹ and the kon was 4340 M⁻¹ s⁻¹.

A word on the koff: it is the first-order rate constant of dissociation. One may read the kon as the rate constant with which the complex forms.
